Drawing on the RNAGym collection of RNA variant scans (doi:10.7554/elife.90254), this text covers self-cleavage for 39 variants.

B1: LINE1-full (parent)
chain: UACGUAGGUGGUUUUCCCCUGAUAGUGCUAAGGGGGCCUGGAAGUUUGGACUGGGCAGAGCUCAACACAGCGUGGCAAAGUGGCUGUGGCUAGACUGCCUCUCUGGAUUCCUCGUCACUCAGCAGGGCAUCUCUGAGAGAAAUGCC

In the series the parent is B1. Put plainly: self-cleavage, relative activity (ratio to wild type); higher = more cleavage; in vitro, sequencing; the parent is a self-cleaving ribozyme.
Regarding UACGUAGGUGGUUUUCCCCUGAUAGUGCUAAGGGGGCCUGGAAGUUUGGACUGGGCAGAGCUCAACACAGCGUGGCAAAGUGGCUGUGGCCAGACUGCCUCUCUGGAUUCCUCGUCACUCAGCAGGGCAUCUCUGUGAGAAAUGCC [U91C A136U], the self-cleavage is 0.58.
The result for UACGUAGGUGGUUUUCCCCUGAUAGUGCUAAGGGGGCCUGGAAGUUUGGACUGGGCAGAGCUCAACACAGCGUGGCAAAGUGGCUGUGGCCAGACUGCAUCUCUGGAUUCCUCGUCACUCAGCAGGGCAUCUCUGAGAGAAAUGCC [U91C C99A] reads 0.11; that for UACGUAGGUGGUUUUCCCCUGAUAGUGCUAAGGGGGCCUGGAAGUUUGGACUGGGCAGAGCUCAACACAGCGUGGCAAAGUGGCUGUGGCCAGACCGCCUCUCUGGAUUCCUCGUCACUCAGCAGGGCAUCUCUGAGAGAAAUGCC [U91C U96C], 0.13; that for UACGUAGGUGGUUUUCCCCUGAUAGUGCUAAGGGGGCCUGGAAGUUUGGACUGGGCAGAGCUCAACACAGCGUGGCAAAGUGGCUGUGGCAAGACUGCCUCUCUGGAUUCCUCGUCACUCAGCAGGGCAUCUCUGAGAGAGAUGCC [U91A A141G], 0.51.
Take UACGUAGGUGGUUUUCCCCUGAUAGUGCUAAGGGGGCCUGGAAGUUUGGACUGGGCAGAGCUCAACACAGCGUGGCAAAGUGGCUGUGGCAAGACUGCCUCUCUGGAUUCCUCGUCACUCAGCAGGGCAGCUCUGAGAGAAAUGCC [U91A U130G]: the self-cleavage was 1.24.
With UACGUAGGUGGUUUUCCCCUGAUAGUGCUAAGGGGGCCUGGAAGUUUGGACUGGGCAGAGCUCAACACAGCGUGGCAAAGUGGCUGUGGCAAGACUGCCACUCUGGAUUCCUCGUCACUCAGCAGGGCAUCUCUGAGAGAAAUGCC [U91A U100A] the figure was 0.56; with UACGUAGGUGGUUUUCCCCUGAUAGUGCUAAGGGGGCCUGGAAGUUUGGACUGGGCAGAGCUCAACACAGCGUGGCAAAGUGGCUGUGGCCAGACUGCCUCUCUGAAUUCCUCGUCACUCAGCAGGGCAUCUCUGAGAGAAAUGCC [U91C G106A], 0.95.
The result for UACGUAGGUGGUUUUCCCCUGAUAGUGCUAAGGGGGCCUGGAAGUUUGGACUGGGCAGAGCUCAACACAGCGUGGCAAAGUGGCUGUGGUUAGACUGCCUCUCUGGAUUCCUCGUCACUCAGCAGGGCAUCUCCGAGAGAAAUGCC [C90U U134C] reads 0.04; that for UACGUAGGUGGUUUUCCCCUGAUAGUGCUAAGGGGGCCUGGAAGUUUGGACUGGGCAGAGCUCAACACAGCGUGGCAAAGUGGCUGUGGCCAGACUGCCUCUCUGGAUUCCUCGUCACUCAGCAGGGUAUCUCUGAGAGAAAUGCC [U91C C128U], 1.
For UACGUAGGUGGUUUUCCCCUGAUAGUGCUAAGGGGGCCUGGAAGUUUGGACUGGGCAGAGCUCAACACAGCGUGGCAAAGUGGCUGUGGCAAGACUGCCUCUCUGGAUUCCUCGUCACCCAGCAGGGCAUCUCUGAGAGAAAUGCC [U91A U119C], the self-cleavage is 0.84.
The result for UACGUAGGUGGUUUUCCCCUGAUAGUGCUAAGGGGGCCUGGAAGUUUGGACUGGGCAGAGCUCAACACAGCGUGGCAAAGUGGCUGUGGCAAGACUGCCUCUCUGGAUUCCUCGUCACUCAGCAGGGCAUCUCUGAGAGAAAGGCC [U91A U143G] reads 0.56; that for UACGUAGGUGGUUUUCCCCUGAUAGUGCUAAGGGGGCCUGGAAGUUUGGACUGGGCAGAGCUCAACACAGCGUGGCAAAGUGGCUGUGGCAAGACUGCCUCUCUGGAUUCCUCGUCACUCAGCAGGGCAUCUCUGAGAGAAAUGCC [U91A], 0.58; that for UACGUAGGUGGUUUUCCCCUGAUAGUGCUAAGGGGGCCUGGAAGUUUGGACUGGGCAGAGCUCAACACAGCGUGGCAAAGUGGCUGUGGCCAGACUGCCUCUCUGGAUUCCUCGUCACUCAGCAGGGCAUCUCUGAGAGAAAUGCC [U91C], 0.67.
As to UACGUAGGUGGUUUUCCCCUGAUAGUGCUAAGGGGGCCUGGAAGUUUGGACUGGGCAGAGCUCAACACAGCGUGGCAAAGUGGCUGUGGCAAGACUGCCUCUCUGGAUUCCUCGUUACUCAGCAGGGCAUCUCUGAGAGAAAUGCC [U91A C116U], the self-cleavage was 0.53.
The result for UACGUAGGUGGUUUUCCCCUGAUAGUGCUAAGGGGGCCUGGAAGUUUGGACUGGGCAGAGCUCAACACAGCGUGGCAAAGUGGCUGUGGCCAGACUGUCUCUCUGGAUUCCUCGUCACUCAGCAGGGCAUCUCUGAGAGAAAUGCC [U91C C98U] reads 0.19; that for UACGUAGGUGGUUUUCCCCUGAUAGUGCUAAGGGGGCCUGGAAGUUUGGACUGGGCAGAGCUCAACACAGCGUGGCAAAGUGGCUGUGGCCAGACUGCCUCUCUGGAUUCCUCGUCACUCAGCAGGGCAUCUCUGAGUGAAAUGCC [U91C A138U], 0.6.
For UACGUAGGUGGUUUUCCCCUGAUAGUGCUAAGGGGGCCUGGAAGUUUGGACUGGGCAGAGCUCAACACAGCGUGGCAAAGUGGCUGUGGCCAGACUGCCUCUCUGGAUUCCUCGUCACUCAGCAGGGCGUCUCUGAGAGAAAUGCC [U91C A129G], the self-cleavage came out at 0.47.
As to UACGUAGGUGGUUUUCCCCUGAUAGUGCUAAGGGGGCCUGGAAGUUUGGACUGGGCAGAGCUCAACACAGCGUGGCAAAGUGGCUGUGGCCAGACUGCCUCUCUGGAUUCCUCGUCACUCAGCUGGGCAUCUCUGAGAGAAAUGCC [U91C A124U], the self-cleavage turned out to be 0.
The result for UACGUAGGUGGUUUUCCCCUGAUAGUGCUAAGGGGGCCUGGAAGUUUGGACUGGGCAGAGCUCAACACAGCGUGGCAAAGUGGCUGUGGCCAGACUGCCUCUCUGGAUUCCUCGUCACUCAGCGGGGCAUCUCUGAGAGAAAUGCC [U91C A124G] reads 0.33; that for UACGUAGGUGGUUUUCCCCUGAUAGUGCUAAGGGGGCCUGGAAGUUUGGACUGGGCAGAGCUCAACACAGCGUGGCAAAGUGGCUGUGGCCAGACUGCCUCUCUGGAUUCCUCGUCGCUCAGCAGGGCAUCUCUGAGAGAAAUGCC [U91C A117G], 0.78.
Regarding UACGUAGGUGGUUUUCCCCUGAUAGUGCUAAGGGGGCCUGGAAGUUUGGACUGGGCAGAGCUCAACACAGCGUGGCAAAGUGGCUGUGGCCAGACUGCCUCUCUGGAUUCCUCGUCUCUCAGCAGGGCAUCUCUGAGAGAAAUGCC [U91C A117U], the self-cleavage came out at 0.92.
The result for UACGUAGGUGGUUUUCCCCUGAUAGUGCUAAGGGGGCCUGGAAGUUUGGACUGGGCAGAGCUCAACACAGCGUGGCAAAGUGGCUGUGGCAAGGCUGCCUCUCUGGAUUCCUCGUCACUCAGCAGGGCAUCUCUGAGAGAAAUGCC [U91A A94G] reads 0.09.
Regarding UACGUAGGUGGUUUUCCCCUGAUAGUGCUAAGGGGGCCUGGAAGUUUGGACUGGGCAGAGCUCAACACAGCGUGGCAAAGUGGCUGUGGCAAGACCGCCUCUCUGGAUUCCUCGUCACUCAGCAGGGCAUCUCUGAGAGAAAUGCC [U91A U96C], the self-cleavage was 0.12.
The result for UACGUAGGUGGUUUUCCCCUGAUAGUGCUAAGGGGGCCUGGAAGUUUGGACUGGGCAGAGCUCAACACAGCGUGGCAAAGUGGCUGUGGCAAGACUGCCUCUCUGGAUUCCUCGCCACUCAGCAGGGCAUCUCUGAGAGAAAUGCC [U91A U115C] reads 0.78; that for UACGUAGGUGGUUUUCCCCUGAUAGUGCUAAGGGGGCCUGGAAGUUUGGACUGGGCAGAGCUCAACACAGCGUGGCAAAGUGGCUGUGGCCAGACUGCCUCUCUGGAUUCCUCAUCACUCAGCAGGGCAUCUCUGAGAGAAAUGCC [U91C G114A], 0.57; that for UACGUAGGUGGUUUUCCCCUGAUAGUGCUAAGGGGGCCUGGAAGUUUGGACUGGGCAGAGCUCAACACAGCGUGGCAAAGUGGCUGUGGUUAGACUGCCUCUCUGGAUUCCUCGUCACUCAGCAGGGCAUCCCUGAGAGAAAUGCC [C90U U132C], 0.03.
With UACGUAGGUGGUUUUCCCCUGAUAGUGCUAAGGGGGCCUGGAAGUUUGGACUGGGCAGAGCUCAACACAGCGUGGCAAAGUGGCUGUGGUUAGACUGCCUCUCUGGAUUCCUCGUCACUCAGCAGGGCAUCACUGAGAGAAAUGCC [C90U U132A] the figure was 0.01; with UACGUAGGUGGUUUUCCCCUGAUAGUGCUAAGGGGGCCUGGAAGUUUGGACUGGGCAGAGCUCAACACAGCGUGGCAAAGUGGCUGUGGCCAGACUGCCUCUCUGGAUUCCUCGUCACUCAGCAGGGCAUCUCUGAGAGAGAUGCC [U91C A141G], 0.92.
UACGUAGGUGGUUUUCCCCUGAUAGUGCUAAGGGGGCCUGGAAGUUUGGACUGGGCAGAGCUCAACACAGCGUGGCAAAGUGGCUGUGGCCAGACUGCCUCUCUGGAUUCCUCGUCACUCAGCAGGGCAUCUCUGAGAGGAAUGCC [U91C A140G]: the self-cleavage was determined as 0.75.
With UACGUAGGUGGUUUUCCCCUGAUAGUGCUAAGGGGGCCUGGAAGUUUGGACUGGGCAGAGCUCAACACAGCGUGGCAAAGUGGCUGUGGCAAGACUGCCUCUCUGGAUUCCUCGUCACUCGGCAGGGCAUCUCUGAGAGAAAUGCC [U91A A121G] the figure was 0.84; with UACGUAGGUGGUUUUCCCCUGAUAGUGCUAAGGGGGCCUGGAAGUUUGGACUGGGCAGAGCUCAACACAGCGUGGCAAAGUGGCUGUGGCCAGAAUGCCUCUCUGGAUUCCUCGUCACUCAGCAGGGCAUCUCUGAGAGAAAUGCC [U91C C95A], 0.08; with UACGUAGGUGGUUUUCCCCUGAUAGUGCUAAGGGGGCCUGGAAGUUUGGACUGGGCAGAGCUCAACACAGCGUGGCAAAGUGGCUGUGGCCAGACUGCCUCUCUGGAUUUCUCGUCACUCAGCAGGGCAUCUCUGAGAGAAAUGCC [U91C C110U], 0.66.
As to UACGUAGGUGGUUUUCCCCUGAUAGUGCUAAGGGGGCCUGGAAGUUUGGACUGGGCAGAGCUCAACACAGCGUGGCAAAGUGGCUGUGGCCAGACUGCCUCUCUGGGUUCCUCGUCACUCAGCAGGGCAUCUCUGAGAGAAAUGCC [U91C A107G], the self-cleavage was 0.73.
The result for UACGUAGGUGGUUUUCCCCUGAUAGUGCUAAGGGGGCCUGGAAGUUUGGACUGGGCAGAGCUCAACACAGCGUGGCAAAGUGGCUGUGGCAAGACUGCCUCUCCGGAUUCCUCGUCACUCAGCAGGGCAUCUCUGAGAGAAAUGCC [U91A U104C] reads 0.42; that for UACGUAGGUGGUUUUCCCCUGAUAGUGCUAAGGGGGCCUGGAAGUUUGGACUGGGCAGAGCUCAACACAGCGUGGCAAAGUGGCUGUGGCCAGACUGCCUCUCUGGAUUCCUCGUCACUCAGUAGGGCAUCUCUGAGAGAAAUGCC [U91C C123U], 0.8.
With UACGUAGGUGGUUUUCCCCUGAUAGUGCUAAGGGGGCCUGGAAGUUUGGACUGGGCAGAGCUCAACACAGCGUGGCAAAGUGGCUGUGGCCAGACUGCCUCUCUGGAUUCCUCGUCACUCAGCAGGACAUCUCUGAGAGAAAUGCC [U91C G127A] the figure was 0.53; with UACGUAGGUGGUUUUCCCCUGAUAGUGCUAAGGGGGCCUGGAAGUUUGGACUGGGCAGAGCUCAACACAGCGUGGCAAAGUGGCUGUGGUUAGACUGCCUCUCUGGACUCCUCGUCACUCAGCAGGGCAUCUCUGAGAGAAAUGCC [C90U U108C], 0.03.
UACGUAGGUGGUUUUCCCCUGAUAGUGCUAAGGGGGCCUGGAAGUUUGGACUGGGCAGAGCUCAACACAGCGUGGCAAAGUGGCUGUGGCCAGACUGCCUCUCUGGAUUCCUCGUCACUCAGCAGGGCAUCUAUGAGAGAAAUGCC [U91C C133A]: the self-cleavage amounted to 0.74.
Turning to UACGUAGGUGGUUUUCCCCUGAUAGUGCUAAGGGGGCCUGGAAGUUUGGACUGGGCAGAGCUCAACACAGCGUGGCAAAGUGGCUGUGGCAAGACUGCCUCUCUGGAUUCCUCGUCACUCAGCGGGGCAUCUCUGAGAGAAAUGCC [U91A A124G], the self-cleavage was 0.33.
